What all share (assay): cell-based or functional assay
Assay [1] deals with ASK1 (h) (human) (UniProt Q99683).
Assay [2] has as its target mTOR (h) (human) (UniProt P42345).
In assay [3] the target is TrkA (h) (human) (UniProt P04629).
For assay [4], the target named is FGFR1(V561M) (h) (human) (UniProt P11362).
The target in assay [5] is DMPK (h) (human) (UniProt Q09013).
Assay [6] addresses T1, MST1 (h) (human) (UniProt Q13043).
T1 sequence (looked up): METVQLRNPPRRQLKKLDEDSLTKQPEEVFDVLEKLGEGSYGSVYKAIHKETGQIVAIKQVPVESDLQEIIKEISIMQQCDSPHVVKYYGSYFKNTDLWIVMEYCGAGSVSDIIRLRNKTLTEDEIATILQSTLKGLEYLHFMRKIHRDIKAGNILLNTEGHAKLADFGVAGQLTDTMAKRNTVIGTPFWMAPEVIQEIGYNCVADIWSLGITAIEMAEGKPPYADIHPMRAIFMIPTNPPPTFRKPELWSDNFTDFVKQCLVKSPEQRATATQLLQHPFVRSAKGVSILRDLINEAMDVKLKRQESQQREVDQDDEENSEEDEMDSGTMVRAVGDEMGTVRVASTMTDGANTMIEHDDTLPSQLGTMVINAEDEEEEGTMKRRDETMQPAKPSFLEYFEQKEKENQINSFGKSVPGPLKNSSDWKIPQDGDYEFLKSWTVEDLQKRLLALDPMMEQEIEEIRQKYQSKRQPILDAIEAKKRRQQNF

In assay [7] the target is T2, Ret (h) (human) (UniProt P07949).
T2 sequence (looked up): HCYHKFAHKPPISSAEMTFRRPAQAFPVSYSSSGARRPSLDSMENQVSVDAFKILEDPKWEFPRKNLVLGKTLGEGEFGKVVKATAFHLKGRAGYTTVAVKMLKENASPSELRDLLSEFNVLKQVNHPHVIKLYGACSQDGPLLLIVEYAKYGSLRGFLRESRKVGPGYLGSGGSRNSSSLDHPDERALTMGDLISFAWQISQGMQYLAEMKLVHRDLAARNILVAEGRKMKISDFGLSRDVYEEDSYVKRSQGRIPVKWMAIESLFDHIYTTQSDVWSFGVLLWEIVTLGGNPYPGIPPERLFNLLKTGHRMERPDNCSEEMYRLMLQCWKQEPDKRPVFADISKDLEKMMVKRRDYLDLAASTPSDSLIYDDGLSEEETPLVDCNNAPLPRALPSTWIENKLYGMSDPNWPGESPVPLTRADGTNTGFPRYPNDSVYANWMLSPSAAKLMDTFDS

Assay [8] concerns the target KDR (h) (human) (UniProt P35968).
Assay [9] has as its target T3, Flt3 (h) (human) (UniProt P36888).
T3 sequence (looked up): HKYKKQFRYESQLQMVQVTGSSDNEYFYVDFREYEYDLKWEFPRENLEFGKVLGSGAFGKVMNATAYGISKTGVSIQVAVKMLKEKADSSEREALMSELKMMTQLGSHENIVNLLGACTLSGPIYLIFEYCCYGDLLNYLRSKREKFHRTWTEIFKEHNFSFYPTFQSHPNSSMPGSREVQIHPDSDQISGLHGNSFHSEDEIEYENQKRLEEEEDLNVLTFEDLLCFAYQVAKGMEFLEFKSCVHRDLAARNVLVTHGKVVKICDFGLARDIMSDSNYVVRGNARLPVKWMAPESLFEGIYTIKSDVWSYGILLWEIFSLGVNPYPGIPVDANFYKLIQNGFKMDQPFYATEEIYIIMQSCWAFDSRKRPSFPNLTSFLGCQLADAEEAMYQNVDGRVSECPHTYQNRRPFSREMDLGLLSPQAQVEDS

The target of assay [10] is T4, TAK1 (h) (human) (UniProt O43318).
T4 sequence (looked up): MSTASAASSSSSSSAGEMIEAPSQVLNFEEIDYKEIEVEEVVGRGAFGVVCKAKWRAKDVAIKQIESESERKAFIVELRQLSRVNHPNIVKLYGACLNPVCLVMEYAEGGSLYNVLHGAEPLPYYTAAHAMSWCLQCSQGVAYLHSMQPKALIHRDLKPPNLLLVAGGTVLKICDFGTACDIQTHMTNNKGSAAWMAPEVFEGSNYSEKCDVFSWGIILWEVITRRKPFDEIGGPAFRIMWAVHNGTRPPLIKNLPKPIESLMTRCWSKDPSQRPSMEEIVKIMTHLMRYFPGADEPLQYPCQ

Assay [11] concerns the target MLK1 (h) (human) (UniProt P80192).
The target in assay [12] is T5, CHK1 (h) (human) (UniProt O14757).
T5 sequence (looked up): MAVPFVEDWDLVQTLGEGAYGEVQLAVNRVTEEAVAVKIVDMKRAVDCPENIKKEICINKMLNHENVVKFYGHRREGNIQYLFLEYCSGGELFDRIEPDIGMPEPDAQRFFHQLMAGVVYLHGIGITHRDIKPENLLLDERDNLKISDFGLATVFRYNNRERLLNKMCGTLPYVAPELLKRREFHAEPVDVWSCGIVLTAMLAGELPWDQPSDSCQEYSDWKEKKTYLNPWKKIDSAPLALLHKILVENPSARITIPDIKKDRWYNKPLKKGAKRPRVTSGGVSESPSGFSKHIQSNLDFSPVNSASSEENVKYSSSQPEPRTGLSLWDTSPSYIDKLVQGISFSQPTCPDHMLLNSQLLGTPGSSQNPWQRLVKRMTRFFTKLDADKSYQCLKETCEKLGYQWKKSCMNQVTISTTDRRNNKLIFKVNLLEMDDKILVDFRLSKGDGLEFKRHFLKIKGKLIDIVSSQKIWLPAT

Assay [13] addresses CaMKIIγ (h) (human) (UniProt Q13555).
Assay [14] addresses ROCK-II (h) (human) (UniProt O75116).
Assay [15] addresses MKK7β (h) (human) (UniProt O14733).
The target of assay [16] is IRAK1 (h) (human) (UniProt P51617).
For assay [17], the target named is JAK2 (h) (human) (UniProt O60674).
Assay [18] concerns the target IRR (h) (human) (UniProt P14616).
Assay [19] addresses PKBγ (h) (human) (UniProt Q9Y243).
The target in assay [20] is STK33 (h) (human) (UniProt Q9BYT3).

These results are taken from patent US20160136234A1.

PKBγ (h) (human), sequence (Q9Y243 whole entry): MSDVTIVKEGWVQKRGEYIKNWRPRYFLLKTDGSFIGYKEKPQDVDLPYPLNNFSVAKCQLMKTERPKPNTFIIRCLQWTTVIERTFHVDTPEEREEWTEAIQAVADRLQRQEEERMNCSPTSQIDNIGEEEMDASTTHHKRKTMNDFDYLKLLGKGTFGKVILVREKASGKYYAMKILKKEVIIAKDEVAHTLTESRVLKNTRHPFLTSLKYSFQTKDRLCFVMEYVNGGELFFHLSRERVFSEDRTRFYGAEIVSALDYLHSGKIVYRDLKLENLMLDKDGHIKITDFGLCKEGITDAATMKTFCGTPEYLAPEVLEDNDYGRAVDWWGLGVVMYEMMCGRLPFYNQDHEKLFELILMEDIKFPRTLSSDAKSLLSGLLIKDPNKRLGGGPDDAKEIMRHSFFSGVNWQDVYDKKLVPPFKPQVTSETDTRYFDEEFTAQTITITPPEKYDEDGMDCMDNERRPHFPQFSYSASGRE
IRR (h) (human), sequence (P14616 944-1297 limits assumed): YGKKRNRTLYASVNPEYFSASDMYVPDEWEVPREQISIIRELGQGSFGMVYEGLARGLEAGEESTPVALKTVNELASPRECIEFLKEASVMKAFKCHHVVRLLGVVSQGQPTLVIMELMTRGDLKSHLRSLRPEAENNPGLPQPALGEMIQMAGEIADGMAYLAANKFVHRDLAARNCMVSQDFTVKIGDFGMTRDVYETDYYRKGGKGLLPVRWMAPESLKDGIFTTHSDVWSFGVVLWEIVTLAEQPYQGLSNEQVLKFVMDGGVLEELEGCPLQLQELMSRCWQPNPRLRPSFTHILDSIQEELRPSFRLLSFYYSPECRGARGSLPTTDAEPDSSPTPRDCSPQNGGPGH
mTOR (h) (human), sequence (P42345 1362-2549 limits assumed): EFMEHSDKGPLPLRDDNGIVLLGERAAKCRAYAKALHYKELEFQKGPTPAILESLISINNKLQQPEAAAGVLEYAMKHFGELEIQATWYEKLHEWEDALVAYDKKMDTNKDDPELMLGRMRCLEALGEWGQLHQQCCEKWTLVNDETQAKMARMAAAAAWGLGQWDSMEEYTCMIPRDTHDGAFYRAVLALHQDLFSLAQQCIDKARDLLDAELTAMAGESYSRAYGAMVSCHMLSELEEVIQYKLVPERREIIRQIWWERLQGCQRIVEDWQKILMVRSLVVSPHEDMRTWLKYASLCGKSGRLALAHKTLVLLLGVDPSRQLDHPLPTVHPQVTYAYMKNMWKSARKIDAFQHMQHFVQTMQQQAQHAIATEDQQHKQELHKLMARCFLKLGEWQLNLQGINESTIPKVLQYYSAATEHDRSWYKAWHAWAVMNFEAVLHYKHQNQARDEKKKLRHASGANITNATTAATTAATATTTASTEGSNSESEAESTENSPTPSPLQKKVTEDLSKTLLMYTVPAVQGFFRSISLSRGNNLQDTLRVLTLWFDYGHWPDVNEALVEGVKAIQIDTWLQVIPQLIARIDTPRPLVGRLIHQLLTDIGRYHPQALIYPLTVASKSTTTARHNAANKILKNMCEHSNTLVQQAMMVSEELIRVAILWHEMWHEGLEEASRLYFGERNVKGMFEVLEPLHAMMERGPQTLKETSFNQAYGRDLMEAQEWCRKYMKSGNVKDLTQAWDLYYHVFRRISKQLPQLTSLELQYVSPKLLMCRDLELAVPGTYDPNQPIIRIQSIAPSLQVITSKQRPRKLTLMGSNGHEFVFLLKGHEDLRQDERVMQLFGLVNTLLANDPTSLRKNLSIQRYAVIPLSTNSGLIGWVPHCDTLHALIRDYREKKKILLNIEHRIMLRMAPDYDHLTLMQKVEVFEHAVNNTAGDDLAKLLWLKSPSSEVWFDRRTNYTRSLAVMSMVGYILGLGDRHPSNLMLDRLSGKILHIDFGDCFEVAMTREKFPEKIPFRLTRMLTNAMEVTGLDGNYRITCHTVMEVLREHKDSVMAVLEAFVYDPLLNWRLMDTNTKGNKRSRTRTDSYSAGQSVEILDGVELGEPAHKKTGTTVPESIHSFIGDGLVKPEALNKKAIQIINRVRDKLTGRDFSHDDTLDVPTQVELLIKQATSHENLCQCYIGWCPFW
FGFR1(V561M) (h) (human), sequence (P11362 456-765 V561M limits assumed): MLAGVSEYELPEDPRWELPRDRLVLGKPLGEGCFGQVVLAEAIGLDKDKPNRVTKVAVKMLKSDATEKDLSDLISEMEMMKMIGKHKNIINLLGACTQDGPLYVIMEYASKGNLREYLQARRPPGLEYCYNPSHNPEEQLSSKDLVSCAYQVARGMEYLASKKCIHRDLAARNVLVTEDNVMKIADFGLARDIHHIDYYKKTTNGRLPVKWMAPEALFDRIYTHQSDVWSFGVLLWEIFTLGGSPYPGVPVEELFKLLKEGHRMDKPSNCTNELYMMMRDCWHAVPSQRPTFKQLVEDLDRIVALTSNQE
CaMKIIγ (h) (human), sequence (Q13555 whole entry): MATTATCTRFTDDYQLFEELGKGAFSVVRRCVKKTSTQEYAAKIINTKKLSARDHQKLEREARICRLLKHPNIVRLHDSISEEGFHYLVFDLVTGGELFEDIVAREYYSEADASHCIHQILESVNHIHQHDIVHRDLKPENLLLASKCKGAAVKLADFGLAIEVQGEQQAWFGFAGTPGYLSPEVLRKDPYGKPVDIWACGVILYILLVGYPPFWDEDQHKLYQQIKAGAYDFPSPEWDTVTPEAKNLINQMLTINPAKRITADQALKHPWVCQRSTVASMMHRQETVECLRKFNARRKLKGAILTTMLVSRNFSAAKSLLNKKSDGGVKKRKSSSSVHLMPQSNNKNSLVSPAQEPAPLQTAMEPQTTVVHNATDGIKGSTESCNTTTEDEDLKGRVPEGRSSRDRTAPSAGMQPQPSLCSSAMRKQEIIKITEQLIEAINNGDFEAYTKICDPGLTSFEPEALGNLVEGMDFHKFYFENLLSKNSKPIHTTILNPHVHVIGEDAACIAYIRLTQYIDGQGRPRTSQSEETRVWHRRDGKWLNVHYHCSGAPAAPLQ

As to MMI-0300 (peptide), the % activity at 100 µM in assay [1] is 80%; in [2], 91%; in assay [3], 25%; in assay [4], 74%; in assay [5] it was 59%; in [6], 14%. The % activity at 100 µM is 140% in [7]; 101% in [8]; 84% in [9]; 122% in assay [10]; 40% in [11]; 91% in assay [12]. Moreover, the % activity at 100 µM in [13] was 5%; in assay [14] it was 74%; in assay [15] it was 100%; in assay [16], 95%; in [17], 133%; in assay [18], 8%. Moreover, the figures for the % activity at 100 µM in [19] and in [20] were 20% and 45%, respectively.
